Results published in EP2388325A1 (RLP AgroScience GmbH, dated 2011).

Assays:
[1] = target: MBP:HA-HC-Pro fusion protein (ZYMV HC-Pro fused to the C-terminus of maltose binding protein, HA-tag between … (zucchini yellow mosaic virus (ZYMV), UniProt P0AEX9 27-396 = MBP)); assay: cell-based or functional assay
[2] = target: the molecule itself; assay: Western blot / Coomassie gel after Ni-NTA purification (self-association)

B1: Trx-cupin-protein-His-protein (A. thaliana cupin protein expressed from pET32a(+)) (other)
chain: MGCIGVVNVTSINPYLTRRSNKPYNSRRPSSMAAAIRAESTEKLGITIEKNPPESKLTQLGVRSWPKWGCPPSKFPWTYSAKETCYLLQGKVKVYPNGSDEGVEIEAGDFVVFPKGMSCTWDVSVAVDKHYQFE
notes: Expressed in BL21 (DE3) codon plus, purified by the His-tag; 34 kDa monomer; also called Tm-cupin-protein-His-protein; Trx-QP-His-protein; not shown: N-terminal pET32a(+) tags: thioredoxin (Trx-tag), 6 X His-tag, S-Tag, enterokinase site; C-terminal 6 X His-tag from pET32a(+)
gelshift (EMSA): binding of 21 bp siRNA-double strands by MBP-HA-HC-Pro, signal intensities (Quantity One) [1]: 3 fold
binding result [2]: binds
